These results are taken from article PMC9035363.

The target of test [1] is SARS-CoV-2 S B.1.1.7 on CHO cells (SARS-CoV-2) (UniProt P0DTC2).
Test [2] addresses SARS-CoV-2 S B.1.351 on CHO cells (SARS-CoV-2) (UniProt P0DTC2).

With “LY-CoV1404 (bebtelovimab), full-length human IgG1 mAb (antibody)”, in test [1], the VSV pseudovirus neutralisation IC50 was 1 ng/mL, the VSV pseudovirus neutralisation IC90 amounted to 9 ng/mL, the lentiviral pseudovirus neutralisation IC50 was 4 ng/mL and the lentiviral pseudovirus neutralisation IC90 came out at 11 ng/mL. Further, in test [2], the VSV pseudovirus neutralisation IC50 amounted to 2 ng/mL, the VSV pseudovirus neutralisation IC90 is 9 ng/mL, the lentiviral pseudovirus neutralisation IC50 was 3 ng/mL and the lentiviral pseudovirus neutralisation IC90 was 9 ng/mL.
